# Experimental data reported in patent publication EP4420676A1 (Medizinische Hochschule Hannover, dated 2024).
# T1: human DGCR2 expressed on HEK293T cells (human, UniProt P98153 21-550)
# T1 construct: Transiently expressed on HEK293T cells from a vector with eGFP downstream of a P2A site; also called human antigen; DiGeorge Syndrom Critical Region 2
# T1 sequence: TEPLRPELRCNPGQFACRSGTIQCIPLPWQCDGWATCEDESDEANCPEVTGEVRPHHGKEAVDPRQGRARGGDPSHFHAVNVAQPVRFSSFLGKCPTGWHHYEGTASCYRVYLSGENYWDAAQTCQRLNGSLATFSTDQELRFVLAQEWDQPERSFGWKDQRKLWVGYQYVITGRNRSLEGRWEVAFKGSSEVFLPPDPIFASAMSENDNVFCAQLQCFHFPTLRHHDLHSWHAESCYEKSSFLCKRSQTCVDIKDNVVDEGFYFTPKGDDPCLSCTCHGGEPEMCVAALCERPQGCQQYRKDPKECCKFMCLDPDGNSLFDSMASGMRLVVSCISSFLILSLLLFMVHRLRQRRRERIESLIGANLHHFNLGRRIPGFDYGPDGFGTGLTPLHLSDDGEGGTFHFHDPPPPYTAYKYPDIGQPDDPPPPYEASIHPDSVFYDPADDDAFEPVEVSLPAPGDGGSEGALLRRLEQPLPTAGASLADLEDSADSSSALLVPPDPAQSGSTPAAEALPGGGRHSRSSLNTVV
# T2: murine DGCR2 expressed on HEK293T cells (mouse, UniProt P98154 25-548)
# T2 construct: Transiently expressed on HEK293T cells from a vector with eGFP downstream of a P2A site; also called mouse DGCR2; murine antigen
# T2 sequence: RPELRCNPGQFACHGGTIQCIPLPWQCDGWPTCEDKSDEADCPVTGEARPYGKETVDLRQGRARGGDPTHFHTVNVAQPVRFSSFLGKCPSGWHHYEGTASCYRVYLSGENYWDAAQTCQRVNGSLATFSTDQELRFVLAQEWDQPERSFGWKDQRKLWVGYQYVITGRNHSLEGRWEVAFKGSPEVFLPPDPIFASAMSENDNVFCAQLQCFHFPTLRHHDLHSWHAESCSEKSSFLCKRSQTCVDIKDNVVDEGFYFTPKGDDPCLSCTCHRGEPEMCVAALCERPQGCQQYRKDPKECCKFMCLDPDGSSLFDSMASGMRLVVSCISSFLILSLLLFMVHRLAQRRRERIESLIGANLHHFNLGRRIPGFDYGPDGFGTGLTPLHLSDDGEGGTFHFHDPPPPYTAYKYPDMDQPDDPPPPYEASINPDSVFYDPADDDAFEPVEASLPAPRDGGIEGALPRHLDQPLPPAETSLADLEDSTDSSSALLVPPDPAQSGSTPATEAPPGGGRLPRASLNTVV
# What was measured:
# [1] = biological target: T1, human DGCR2 expressed on HEK293T cells; assay: flow cytometry, soluble scFv on transfected HEK293T cells (figure legend)
# [2] = biological target: T2, murine DGCR2 expressed on HEK293T cells; assay: as above
# [3] = biological target: T2, murine DGCR2 expressed on HEK293T cells; assay: flow cytometry, soluble scFv on transfected HEK293T cells, anti-His PE
binding result [1],binding result [2],binding result [3],Binder
binds,binds,,"UK018-G3 scFv (scFv, Soluble scFv produced in E. coli) scFv: QVQLVQSGGGVVQPGRSLRLSCAASGFTFSSYGMHWVRQAPGKGLEWVAVISYDGSNKYYADSVKGRFTISRDNSKNTLYLQMNSLRAEDTAVYYCAKDRGAVAGTDWYFDLWGRGTLVTVSSGSASAPKLEEGEFSEARVSSELTQDPAVSVALGQTVRITCQGDSLRSYYASWYQQKPGQAPVLVIYGKNNRPSGIPDRFSGSSSGNTASLTITGAQAEDEADYYCNSRDSSGNHVVFGGGTKLTVLGQPKAAPSVTLFPPSSAAAGSEQKLISEEDLSHHHHHH"
binds,,binds,"tpi010-A5 scFv (scFv, Soluble scFv produced in E. coli) scFv: EVQLVESGGGLVQPGGSLRLSCAASGFTVSSNYMSWVRQAPGKGLEWVSVIYSGGSTYYADSVKGRFTISRDNAKNSLYLQMNSLRAEDTAVYYCARGWTTFDYWGQGTLVTVSSGSASAPKLEEGEFSEARVQAVLTQPPSLSVSPRQTVTITCSGDQLGDRYVSWYQQKPGQSPMLVIYQDDRRPSGVPERFSGSNSGNTATLTIGGTQAMDQADYYCQTWDNSPVVFGGGTKLTVLGQPKAAPSVTLFPPSSAAAGSEQKLISEEDLSHHHHHH"
binds,binds,,"UK018-G9 scFv (scFv, Soluble scFv produced in E. coli) scFv: QVQLVQSGGGLVQPGGSLRLSCAASGFTFSSYSMSWVRQAPGKGLEWVLGITRGGNTFYADSVTGRFTISRDISKNTVFLQMDSLRVEDTAIYYCAKDWTMSGINVFDTWGQGTLVTVSSGSASAPKLEEGEFSEARVQAVLTQPPSVSGSPGQSVTISCTGTSSDVGAYNRVSWYQQPPGTAPKLMIYEVNNRPSGVPDRFSGSKSGNTASLTISGLQAEDEADYYCSSSTTSSTYVFGTGTKVTVLGQPKANPTVTLFPPSSAAAGSEQKLISEEDLSHHHHHH"
